Experimental data as given in publication PMC8294587, “Intrinsic differences in the mechanisms of Tie2 binding to angiopoietins exploited by directed evolution to create an Ang2-selective ligand trap” (The Journal of Biological Chemistry, 2021).
One block for each binder: values may come before it.

Experiments:
[1] = biological target: T1, Angiopoietin-2 (UniProt O15123 19-496); assay: ELISA; recombinant Ang1 or Ang2 immobilised on Maxisorp plates, blocked with TBS, 0.1% Triton-X100, 5% milk powder; Tie2 ectodomain proteins bound for 1 h; detected with anti-Tie2 ectodomain antibodies; EC50 = concentration of ectodomain for 50% of maximal binding; settings: both partners purified
T1 construct: recombinant Ang2; the residue numbers printed for Ang2 (Asp448, Phe469, Ser480) come from the cited structure 2GY7; also called Ang2; source: recombinant
T1 sequence (looked up): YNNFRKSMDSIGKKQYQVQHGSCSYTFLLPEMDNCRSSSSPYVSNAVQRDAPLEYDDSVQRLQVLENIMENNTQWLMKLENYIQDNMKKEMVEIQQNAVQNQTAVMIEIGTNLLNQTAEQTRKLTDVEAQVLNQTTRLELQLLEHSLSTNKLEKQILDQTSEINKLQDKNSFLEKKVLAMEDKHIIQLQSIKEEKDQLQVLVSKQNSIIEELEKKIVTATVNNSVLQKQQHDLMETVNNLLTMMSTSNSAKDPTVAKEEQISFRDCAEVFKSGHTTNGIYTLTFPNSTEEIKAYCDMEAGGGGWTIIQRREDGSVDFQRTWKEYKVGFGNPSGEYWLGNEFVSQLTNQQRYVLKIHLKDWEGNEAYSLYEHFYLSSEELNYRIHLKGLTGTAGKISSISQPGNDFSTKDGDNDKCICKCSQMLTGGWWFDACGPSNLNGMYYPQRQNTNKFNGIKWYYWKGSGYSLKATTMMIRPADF

[2] = biological target: T2, Angiopoietin-1 (UniProt Q15389 16-498); assay: as above; settings: both partners purified
T2 construct: recombinant Ang1; the residue numbers printed for Ang1 (Gln415, Asp450, Leu471, Tyr478) come from the cited structure 4K0V; also called Ang1; source: recombinant
T2 sequence (looked up): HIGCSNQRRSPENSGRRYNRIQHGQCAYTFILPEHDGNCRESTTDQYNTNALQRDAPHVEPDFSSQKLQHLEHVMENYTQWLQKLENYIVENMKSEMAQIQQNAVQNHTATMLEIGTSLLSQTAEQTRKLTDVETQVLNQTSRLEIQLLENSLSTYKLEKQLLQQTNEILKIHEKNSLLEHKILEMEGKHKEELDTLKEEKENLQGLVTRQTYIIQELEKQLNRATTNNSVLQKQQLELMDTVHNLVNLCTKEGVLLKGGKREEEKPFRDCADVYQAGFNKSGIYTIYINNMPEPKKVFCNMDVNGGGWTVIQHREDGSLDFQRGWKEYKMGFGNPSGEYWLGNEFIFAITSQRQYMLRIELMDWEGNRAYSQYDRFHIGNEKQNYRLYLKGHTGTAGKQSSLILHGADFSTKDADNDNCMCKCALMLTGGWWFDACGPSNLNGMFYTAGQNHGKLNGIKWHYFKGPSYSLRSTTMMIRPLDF

binding result [1]: binds
B1: R5 Tie2 ectodomain-Fc with Ser171 reverted back to Pro (Fc fusion, human, UniProt Q02763 23-442, looked up)
chain: AMDLILINSLPLVSDAETSLTCIASGWRPHEPITIGRDFEALMNQHQDPLEVTQDVTREWAKKVVWKREKASKINGAYFCEGRVRGEAIRIRTMKMRQQASFLPATLTMTVDKGDNVNISFKKVLIKEEDAVIYKNGSIIHLVPEVPDILEVHLPHAQPQDAGVYSARYIGGNLFTSAFTRLIVRRCEAQKWGPECNHLCTACMNNGVCHEDTGECICPPGFMGRTCEKACELHTFGRTCKERCSGQEGCKSYVFCLPDPYGCSCATGWKGLQCNEACHPGFYGPDCKLRCSCNNGEMCDRFQGCLCSPGWQGLQCEREGIQRMTPKIVDLPDHIEVNSGKFNPICKASGWPLPTNEEMTLVKPDGTVLHPKDFNHTDHFSVAIFTIHRILPPDSGVWVCSVNTVAGMVEKPFNISVK
notes: signal peptide in the construct; Tie2 ectodomain, human, residues 1-442; also called evolved ectodomain in which Ser171 was reverted back to Pro; source: Hek293, transfected, purified from culture medium (nickel chromatography); not shown: Fc (fragment of human Fc immunoglobulin domain, after a GS4 linker), C-terminal, kept

binding result [2]: binds
binding result [1]: binds
B2: Tie2 ectodomain-Fc Arg167Ala/His168Ala (Fc fusion, human, UniProt Q02763 23-442, looked up)
chain: AMDLILINSLPLVSDAETSLTCIASGWRPHEPITIGRDFEALMNQHQDPLEVTQDVTREWAKKVVWKREKASKINGAYFCEGRVRGEAIRIRTMKMRQQASFLPATLTMTVDKGDNVNISFKKVLIKEEDAVIYKNGSFIHSVPAAEVPDILEVHLPHAQPQDAGVYSARYIGGNLFTSAFTRLIVRRCEAQKWGPECNHLCTACMNNGVCHEDTGECICPPGFMGRTCEKACELHTFGRTCKERCSGQEGCKSYVFCLPDPYGCSCATGWKGLQCNEACHPGFYGPDCKLRCSCNNGEMCDRFQGCLCSPGWQGLQCEREGIQRMTPKIVDLPDHIEVNSGKFNPICKASGWPLPTNEEMTLVKPDGTVLHPKDFNHTDHFSVAIFTIHRILPPDSGVWVCSVNTVAGMVEKPFNISVK
notes: signal peptide in the construct; Tie2 ectodomain, human, residues 1-442; also called Arg167Ala/His168Ala Tie2 ectodomain mutant; double substitution; source: Hek293, transfected, purified from culture medium (nickel chromatography); not shown: Fc (fragment of human Fc immunoglobulin domain, after a GS4 linker), C-terminal, kept

EC50 [1]: 22.7 nM
B3: monomeric wild-type Tie2 ectodomain (domain or fragment, human, UniProt Q02763 23-748, looked up)
chain: AMDLILINSLPLVSDAETSLTCIASGWRPHEPITIGRDFEALMNQHQDPLEVTQDVTREWAKKVVWKREKASKINGAYFCEGRVRGEAIRIRTMKMRQQASFLPATLTMTVDKGDNVNISFKKVLIKEEDAVIYKNGSFIHSVPRHEVPDILEVHLPHAQPQDAGVYSARYIGGNLFTSAFTRLIVRRCEAQKWGPECNHLCTACMNNGVCHEDTGECICPPGFMGRTCEKACELHTFGRTCKERCSGQEGCKSYVFCLPDPYGCSCATGWKGLQCNEACHPGFYGPDCKLRCSCNNGEMCDRFQGCLCSPGWQGLQCEREGIQRMTPKIVDLPDHIEVNSGKFNPICKASGWPLPTNEEMTLVKPDGTVLHPKDFNHTDHFSVAIFTIHRILPPDSGVWVCSVNTVAGMVEKPFNISVKVLPKPLNAPNVIDTGHNFAVINISSEPYFGDGPIKSKKLLYKPVNHYEAWQHIQVTNEIVTLNYLEPRTEYELCVQLVRRGEGGEGHPGPVRRFTTASIGLPPPRGLNLLPKSQTTLNLTWQPIFPSSEDDFYVEVERRSVQKSDQQNIKVPGNLTSVLLNNLHPREQYVVRARVNTKAQGEWSEDLTAWTLSDILPPQPENIKISNITHSSAVISWTILDGYSISSITIRYKVQGKNEDQHVDVKIKNATITQYQLKGLEPETAYQVDIFAENNIGSSNPAFSHELVTLPESQAPADLGGGKMLL
notes: wild-type Tie2 ectodomain, monomeric form; also called Wt monomer; monomeric Tie2
